Results reported in patent US11110115B2, “Nucleic acid molecule with anti-inflammatory and anti-coagulant and organ-protective properties” (APTAHEM AB, priority 2017, dated 2021).

Legend:
[1] = Prothrombin time in arteriovenous shunt model; format: in vivo, Sprague-Dawley male rats; conditions: SEQ ID NO:2 33.3 mg/kg i.v. 5 min prior; Rivaroxaban 10 mg/kg p.o. 90 min prior
Protocol: FIG. 2: Anti-coagulant activity of SEQ ID NO:2 in Arteriovenous Shunt model. Male rats were intravenously injected with saline (Vehicle) or SEQ ID NO:2 solution, according to their body weight. Rivaroxaban was orally administered to the positive control group. 5 to 90 minutes after administration, rats were anesthetized with pentobarbital-na (50 mg/kg). The left jugular vein and the right carotid artery of anesthetized rats were connected with two catheters. The thrombus weight formed on the thread was calculated by subtracting the average weight of the rough nylon thread (A). Prothrombin times were measured (B) and Activated partial thromboplastin times (APTT) were analysed (C). Each bar represents the mean±SEM (n=8 for vehicle and rivaroxaban groups, n=3 for SEQ ID NO:2 group), *p<0.05, **p<0.01, ***p<0.001 vs Vehicle.
The animals were assigned to 3 dosing groups according to the body weight (see table 2). Vehicle treated animals were intravenously injected with saline 90 min prior to shunt assay. The positive control treated animals were orally given Rivaroxaban 10 mg/kg at 90 min prior to shunt assay. SEQ ID NO:2 was intravenously injected 5 min prior to shunt assay.

[2] = Activated partial thromboplastin time (APTT) in arteriovenous shunt model; format: in vivo, Sprague-Dawley male rats; conditions: SEQ ID NO:2 33.3 mg/kg i.v. 5 min prior; Rivaroxaban 10 mg/kg p.o. 90 min prior
[3] = Ferric chloride induced arterial thrombosis model (clot weight and size); format: in vivo, Sprague-Dawley rats; conditions: 60 min after FeCl3; SEQ ID NO:2 5, 20, 40 mg/kg i.v.; Rivaroxaban 10 mg/kg oral; Warfarin 0.5 mg/kg i.v.
Protocol: Animal handling was performed according to guidelines of the National Institute of Health (NIH) and the Association for Assessment and Accreditation of Laboratory Animal Care (AAALAC). A total of 36 Sprague-Dawley rats (Envigo RMS) were divided into six groups comprising of 6 animals per group (3 males and 3 females). […] Both were fed ad libitum a rodent diet. Animals had free access to autoclaved and acidified drinking water. Animals were housed under standard laboratory conditions, air conditioned and filtered with adequate fresh air supply. Animals were kept in a climate controlled environment.
SEQ ID NO:2 (Biospring) (100 mg) was dissolved in 5 ml saline to form a stock solution of 20 mg/ml. Vehicle (saline, Teva) as ready to use for i.v. administration. Rivaroxaban (Bayer, Pharamseed Ltd) dosing solution was diluted at 10 mg/kg (Group 2M). Warfarin (Ceriliant, Pharmaseed Ltd) was diluted at 0.5 mg/kg (Group 3M). […]
Male and Female rats were anaesthetized by intraperitoneal injection of ketamine/xylazine. […] The time needed for occlusion to occur was measured for up to 60 min, and occlusion time was assigned a value of 60 min for vessels that […].
Clot formation was followed for 60 minutes following application of FeCl3. […] The artery wall was cut longitudinally; clot was taken out, weighed and measured by caliper. […]

[4] = tested on: CD11b+CD14+ white blood cells; test: Flow cytometry of CD11b and CD14 on white blood cells after LPS injection; format: in vivo, C57BL/6 mice; conditions: 2 h after LPS
Protocol: Female C57BL/6 mice (Taconic Biosciences) were 8 weeks of age at the start of the study. Animals had free access to autoclaved and acidified drinking water. Animals were housed under standard laboratory conditions, air conditioned and filtered with adequate fresh air supply. Animals were kept in a climate controlled environment.
SEQ ID NO:2 (Biospring) (100 mg) was dissolved in 5 ml saline to form a stock solution of 20 mg/ml. Vehicle is saline solution.
Dexamethasone stock was prepared by mixing dexamethasone and beta-cyclodextrin at a 4:96 ratio, solubilized in PBS at 2 mg dexamethasone/mL and stored at −20° C. Dosing solution of dexamethasone was prepared by diluting the stock solution to 1 mg/mL with PBS. Dexamethasone administered at 5 to 10 mg/kg, i.p. is used as a positive control for suppression of the immune response.
Two hours after LPS injection mice were bled and blood samples were taken. Flow cytometry study was performed on BD FACSCalibur (lasers: 488 nm; 635 nm and UV). In our study we measured the expression of integrin Mac-1 (CD11b/18) on leukocytes by means of flow cytometry. Expression of CD11b on all leukocytes monocytes and granulocytes were assessed by flow cytometry using double fluorescence staining (CD 45/CD11b).

B1: SEQ ID NO:2: nucleic acid sequence of SEQ ID NO:1 in which each C and U is fluorinated to increase stability in plasma (nucleic acid)
chain: GGGAAUUCGAGCUCGGUACCAACAAUACGACUACACCAUCAAAAGUAUUAUCUUGCAUCGAAGGUUGGCACGUAGCAAGCUCUGCAGUCG
modifications: fluorinated C and U; (6)..(7) uracil is fluorinated; (8)..(8) cytosine is fluorinated; (12)..(12) cytosine is fluorinated; (13)..(13) uracil is fluorinated; (14)..(14) cytosine is fluorinated; (17)..(17) uracil is fluorinated; (19)..(20) cytosine is fluorinated; (23)..(23) cytosine is fluorinated; (26)..(26) uracil is fluorinated; (28)..(28) cytosine is fluorinated; (31)..(31) cytosine is fluorinated; (32)
[1]
  Prothrombin times compared to vehicle group: did not show any significant difference
[2]
  Activated Partial Thromboplastin Time (APTT) compared to vehicle group: significant increase
[3]
  clot size compared to control group (Vehicle): reduction
  clot weight compared to control group (Vehicle): reduction
[4]; 5 mg/kg i.v.
  expression of CD11b compared to vehicle group: similar
  proportion of CD11b+CD14+ cells in white blood cells compared to vehicle group: similar
[4]; 25 mg/kg i.v.
  proportion of CD11b+CD14+ cells in white blood cells compared to vehicle group: significantly lower
[4]; 25 mg/kg i.v., not statistically significant
  expression of CD11b compared to vehicle group: lower
[4]; 50 mg/kg i.v.
  lower expression of CD11b, difference to vehicle group: statistically significant
  proportion of CD11b+CD14+ cells in white blood cells compared to vehicle group: significantly lower
